The values that follow come from patent publication US20020164738.

The target in this data set is T1, MAGE-3 protein purified from E. coli (pNB202, pRSET-A, N-terminal His tag).
T1 chain: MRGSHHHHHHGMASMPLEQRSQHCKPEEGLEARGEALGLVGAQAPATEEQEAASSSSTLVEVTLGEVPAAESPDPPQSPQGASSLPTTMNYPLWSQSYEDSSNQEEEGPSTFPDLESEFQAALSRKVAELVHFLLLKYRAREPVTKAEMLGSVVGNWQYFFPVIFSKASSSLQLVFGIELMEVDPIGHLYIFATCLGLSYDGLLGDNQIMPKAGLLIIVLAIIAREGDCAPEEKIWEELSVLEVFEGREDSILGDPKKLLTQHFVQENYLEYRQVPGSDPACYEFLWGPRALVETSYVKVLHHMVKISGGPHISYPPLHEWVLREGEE

B1: pro-caspase-12 (48 kDa) synthesized in vitro, radioactively labeled (protein)
chain: MAARRTHERDPIYKIKGLAKDMLDGVFDDLVEKNVLNGDELLKIGESASFILNKAENLVENFLEKTDMAGKIFAGHIANSQEQLSLQFSNDEDDGPQKICTPSSPSESKRKVEDDEMEVNAGLAHESHLMLTAPHGLQSSEVQDTLKLCPRDQFCKIKTERAKEIYPVMEKEGRTRLALIICNKKFDYLFDRDNADTDILNMQELLENLGYSVVLKENLTAQEMETELMQFAGRPEHQSSDSTFLVFMSHGILEGICGVKHRNKKPDVLHDDTIFKIFNNSNCRSLRNKPKILIMQACRGRYNGTIWVSTNKGIATADTDEERVLSCKWNNSITKAHVETDFIAFKSSTPHNISWKVGKTGSLFISKLIDCFKKYCWCYHLEEIFRKVQHSFEVPGELTQMPTIERVSMTRYFYLFPGN
As to B1, the “cleavage of radioactively labeled pro-caspase-12 by mature caspase-12 (SDS-PAGE, autoradiography)” value was “Addition of 12 µg of MAGE-3 inhibited the cleavage reaction by caspase-12 almost completely”.
